According to patent publication US20040038369:

Target: T1, HBEGF (delta TM)-ALP, Q99075
T1 chain: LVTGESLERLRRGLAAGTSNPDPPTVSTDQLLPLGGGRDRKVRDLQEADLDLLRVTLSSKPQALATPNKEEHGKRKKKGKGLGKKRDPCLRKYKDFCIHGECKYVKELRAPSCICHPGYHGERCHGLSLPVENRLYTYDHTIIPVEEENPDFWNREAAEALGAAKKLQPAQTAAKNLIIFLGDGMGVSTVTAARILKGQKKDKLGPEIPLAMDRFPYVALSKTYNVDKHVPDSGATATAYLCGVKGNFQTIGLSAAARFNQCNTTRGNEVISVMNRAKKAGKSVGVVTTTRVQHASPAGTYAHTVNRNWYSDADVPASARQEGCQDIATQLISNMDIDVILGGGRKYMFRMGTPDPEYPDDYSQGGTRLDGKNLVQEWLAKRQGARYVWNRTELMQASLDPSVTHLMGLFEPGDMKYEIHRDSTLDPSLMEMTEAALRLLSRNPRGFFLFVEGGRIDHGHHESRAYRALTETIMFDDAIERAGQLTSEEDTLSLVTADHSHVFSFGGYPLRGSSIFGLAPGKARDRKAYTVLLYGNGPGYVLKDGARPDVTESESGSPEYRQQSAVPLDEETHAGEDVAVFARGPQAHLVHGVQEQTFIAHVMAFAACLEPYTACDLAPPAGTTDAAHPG

B1: recombinant AST (human airway-specific trypsin-like enzyme expressed in insect cells with a baculovirus vector, purified as in Example 1) (peptide)
chain 1: DQAAANWLINECGAGPDLITLSEQR
chain 2: not shown
cleavage seen by western blotting of the lysate incubated with recombinant HAST (1.56 U/mL) at 37° C. overnight: A mature type having the EGF domain of the HB-EGF was cut out. The band was shifted to a position of about 12 kD.
